Target: retinal guanylate cyclase GC1, eGFP fusion (mGFP-GC1 cells) (human) (UniProt Q02846)
Chain of UniProt Q02846 (Q02846 52-1103): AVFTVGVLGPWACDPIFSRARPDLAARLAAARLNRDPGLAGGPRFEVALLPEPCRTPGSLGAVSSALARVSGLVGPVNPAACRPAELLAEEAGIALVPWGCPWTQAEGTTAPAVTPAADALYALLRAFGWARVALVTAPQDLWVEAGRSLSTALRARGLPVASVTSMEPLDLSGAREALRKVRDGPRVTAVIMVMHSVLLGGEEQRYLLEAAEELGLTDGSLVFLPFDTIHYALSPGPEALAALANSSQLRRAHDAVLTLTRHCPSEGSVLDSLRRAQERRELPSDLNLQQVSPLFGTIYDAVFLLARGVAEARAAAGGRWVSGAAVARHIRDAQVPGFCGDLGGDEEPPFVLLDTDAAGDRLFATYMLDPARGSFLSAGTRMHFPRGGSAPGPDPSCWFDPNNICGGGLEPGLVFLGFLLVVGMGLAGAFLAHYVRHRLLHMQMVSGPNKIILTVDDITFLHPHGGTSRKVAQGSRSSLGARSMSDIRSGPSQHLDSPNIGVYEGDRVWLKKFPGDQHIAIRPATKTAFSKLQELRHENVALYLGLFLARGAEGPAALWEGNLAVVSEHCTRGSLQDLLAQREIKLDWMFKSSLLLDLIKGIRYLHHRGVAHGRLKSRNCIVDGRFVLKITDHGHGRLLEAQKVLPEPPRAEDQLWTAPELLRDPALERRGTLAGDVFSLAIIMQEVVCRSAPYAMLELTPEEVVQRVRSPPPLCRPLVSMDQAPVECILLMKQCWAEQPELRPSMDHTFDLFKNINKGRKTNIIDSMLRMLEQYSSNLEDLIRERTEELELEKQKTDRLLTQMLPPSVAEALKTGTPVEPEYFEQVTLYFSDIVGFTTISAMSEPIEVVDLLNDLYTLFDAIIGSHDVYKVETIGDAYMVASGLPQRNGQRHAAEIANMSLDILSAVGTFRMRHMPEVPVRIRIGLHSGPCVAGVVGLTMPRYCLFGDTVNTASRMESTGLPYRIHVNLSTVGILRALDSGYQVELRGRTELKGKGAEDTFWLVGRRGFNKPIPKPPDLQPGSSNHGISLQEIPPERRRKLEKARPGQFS

Row | EC50: GCAP1 concentration (0–20 µM) at which cGMP synthesis by GC1 in HEK293 cell membranes is half-maximal, at low Ca2+ (< 19 nM) [nM] | Substance
1 | 1550 | E111V-GCAP1 (cone-rod dystrophy-associated variant of human GCAP1) (from UniProt P43080 1-201) (natural protein)
2 | 1880 | Human myristoylated WT-GCAP1 (guanylate cyclase-activating protein 1) (from UniProt P43080 1-201) (natural protein)

Source: publication PMC10673981
